The results in this text go back to paper PMC9325241.

The target of test [1] is recombinant PD-L1 (human PD-L1 protein) (human) (UniProt Q9NZQ7). The experiment in a line: SPR. To be noted: bispecific antibody.
Test [2] concerns the target recombinant EGFR (human EGFR protein) (human) (UniProt P00533). The test is described as follows: SPR. To be noted: bispecific antibody.

UniProt Q9NZQ7, sequence (Q9NZQ7 19-238): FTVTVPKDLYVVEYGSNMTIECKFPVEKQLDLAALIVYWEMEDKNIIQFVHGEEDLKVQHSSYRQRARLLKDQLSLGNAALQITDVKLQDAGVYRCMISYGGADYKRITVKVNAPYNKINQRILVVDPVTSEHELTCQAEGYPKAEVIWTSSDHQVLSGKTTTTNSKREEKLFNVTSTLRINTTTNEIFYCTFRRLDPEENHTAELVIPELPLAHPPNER

By Kd is commonly meant the equilibrium constant for the complex coming apart. As usually defined, the koff is the first-order rate constant of dissociation. As for “anti-EGFR/PD-L1 BsAb, dual variable domain immunoglobulin (DVD-Ig) symmetric tetravalent format (from UniProt P01857)”, in test [1], the Kd is 0.000374 nM and the koff came to 7.56e-07 s⁻¹. Moreover, in test [2], the Kd was determined as 0.913 nM and the koff worked out at 0.0007 s⁻¹.
Consider “anti-EGFR/PD-L1 BsAb, knob-in-hole (KIH) asymmetric bivalent format (from UniProt P01857)”, for which, in test [1], the Kd was found to be 0.0106 nM and the koff was found to be 2.13e-05 s⁻¹. Moreover, in test [2], the Kd amounted to 56.3 nM and the koff is 0.0295 s⁻¹.
